# Test system: T1, Tkip (tyrosine kinase inhibitor peptide), WLVFFVIFYFFR
# T1 sequence: WLVFFVIFYFFR
substance,measurement,value
recombinant human Src,"c-src tyrosine phosphorylation of a synthetic substrate peptide, in vitro kinase assay",Tkip at 50 µM failed to inhibit c-src phosphorylation of a protein substrate

# Source: patent US20040265963
